The text below walks through data of the supplement of paper PMC9112550, “Optimization of the antimicrobial peptide Bac7 by deep mutational scanning” (BMC Biology, 2022).
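Also: peptides expressed intracellularly from a pBAD plasmid library in pooled LB shake-flask culture, induced with 0.3% L-arabinose, DNA abundance read by NGS, three biological replicates, DESeq2 with apeglm shrinkage.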

This series has as its system Escherichia coli TOP10. Put plainly: shrunken log2 fold change of peptide-encoding DNA abundance (4.5 h post-induction vs induction); higher = less antimicrobial activity (less host growth inhibition). As to conditions: time post-induction: 4.5 h; library: site-saturation at positions 5, 18, 19, 20.
For RRIRNRPPRLPRPRPRPWGQPRP, the “shrunken log2 fold change” value amounted to 0.0191.
The same measure for RRIRERPPRLPRPRPRPESVPRP: -0.316; for RRIRWRPPRLPRPRPRPTQYPRP: 0.0537; for RRIRSRPPRLPRPRPRPYPAPRP: -0.559.
On to RRIRMRPPRLPRPRPRPGYFPRP, for which the “shrunken log2 fold change” value worked out at 0.0909.
The same measure for RRIRYRPPRLPRPRPRPQRKPRP: -0.263; for RRIRFRPPRLPRPRPRPQHQPRP: -0.185.
The same measure for RRIRSRPPRLPRPRPRPVVFPRP: 0.11.
The same measure for RRIRKRPPRLPRPRPRPNCVPRP: 0.109; for RRIRDRPPRLPRPRPRPPSMPRP: -0.147; for RRIRERPPRLPRPRPRPTWLPRP: 0.289.
RRIRERPPRLPRPRPRPLSVPRP: the “shrunken log2 fold change” value was -0.642.
The same measure for RRIRPRPPRLPRPRPRPLMNPRP: -0.47; for RRIRGRPPRLPRPRPRPERQPRP: 0.101; for RRIRLRPPRLPRPRPRPAQEPRP: -0.023.
In the case of RRIRARPPRLPRPRPRPRRMPRP, the “shrunken log2 fold change” value turned out to be 0.551.
The same measure for RRIRYRPPRLPRPRPRPLEGPRP: 0.0645.
On to RRIRYRPPRLPRPRPRPEVCPRP, for which the “shrunken log2 fold change” value was -0.0334.
The same measure for RRIRMRPPRLPRPRPRPIPIPRP: 0.138.
Take RRIRGRPPRLPRPRPRPCSYPRP: the “shrunken log2 fold change” value is 0.089.
The same measure for RRIRLRPPRLPRPRPRPKKFPRP: -0.322.
Regarding RRIRYRPPRLPRPRPRPFTMPRP, the “shrunken log2 fold change” value was -0.558.
The same measure for RRIRHRPPRLPRPRPRPSDPPRP: -0.0545; for RRIRSRPPRLPRPRPRPMMFPRP: 0.0732; for RRIRLRPPRLPRPRPRPNVMPRP: -0.0669.
As for RRIRVRPPRLPRPRPRPAVYPRP, the “shrunken log2 fold change” value was -0.161.
The same measure for RRIRPRPPRLPRPRPRPGSVPRP: 0.0512.
Regarding RRIRNRPPRLPRPRPRPYMCPRP, the “shrunken log2 fold change” value was -0.18.
The same measure for RRIRTRPPRLPRPRPRPATVPRP: 0.0426; for RRIRERPPRLPRPRPRPQFMPRP: 0.0848; for RRIRNRPPRLPRPRPRPADRPRP: -0.00994.
For the sequence RRIRYRPPRLPRPRPRPIDKPRP, the “shrunken log2 fold change” value was -0.00865.
RRIRLRPPRLPRPRPRPCMPPRP: the “shrunken log2 fold change” value was -0.579.
In the case of RRIRNRPPRLPRPRPRPVTQPRP, the “shrunken log2 fold change” value amounted to 0.0396.
The same measure for RRIRIRPPRLPRPRPRPDENPRP: 0.108; for RRIRDRPPRLPRPRPRPLWQPRP: 0.316; for RRIRPRPPRLPRPRPRPWPEPRP: 0.0423.
With RRIRQRPPRLPRPRPRPCQKPRP, the “shrunken log2 fold change” value was 0.0369.
Take RRIRFRPPRLPRPRPRPCPRPRP: the “shrunken log2 fold change” value worked out at 0.0155.
For the sequence RRIRIRPPRLPRPRPRPCDLPRP, the “shrunken log2 fold change” value is -0.011.
As for RRIRPRPPRLPRPRPRPFVRPRP, the “shrunken log2 fold change” value is -0.117.
On to RRIRARPPRLPRPRPRPCEQPRP, for which the “shrunken log2 fold change” value is 0.233.
Consider RRIRLRPPRLPRPRPRPADCPRP, for which the “shrunken log2 fold change” value is 0.142.
For the sequence RRIRWRPPRLPRPRPRPWPQPRP, the “shrunken log2 fold change” value amounted to 0.273.
As for RRIRFRPPRLPRPRPRPNACPRP, the “shrunken log2 fold change” value was -0.18.
As for RRIRLRPPRLPRPRPRPLAAPRP, the “shrunken log2 fold change” value is 0.345.
Regarding RRIRPRPPRLPRPRPRPPLWPRP, the “shrunken log2 fold change” value was found to be 1.75.
Regarding RRIRIRPPRLPRPRPRPPSVPRP, the “shrunken log2 fold change” value was -0.0681.
In the case of RRIRMRPPRLPRPRPRPMLGPRP, the “shrunken log2 fold change” value is 0.141.
The same measure for RRIRSRPPRLPRPRPRPQQEPRP: -0.0806.
The same measure for RRIRMRPPRLPRPRPRPNWHPRP: -0.0297; for RRIRCRPPRLPRPRPRPITDPRP: -0.442; for RRIRVRPPRLPRPRPRPTWCPRP: 0.216.
Regarding RRIRSRPPRLPRPRPRPVWRPRP, the “shrunken log2 fold change” value was 0.33.
The same measure for RRIRDRPPRLPRPRPRPCNTPRP: -0.224.
The same measure for RRIRRRPPRLPRPRPRPEWIPRP: 0.361.
The same measure for RRIRVRPPRLPRPRPRPINWPRP: -0.147; for RRIRMRPPRLPRPRPRPAKHPRP: 0.542; for RRIRPRPPRLPRPRPRPIDHPRP: 0.0529.
For the sequence RRIRDRPPRLPRPRPRPAQAPRP, the “shrunken log2 fold change” value is -0.0288.
The same measure for RRIRQRPPRLPRPRPRPAWAPRP: 0.263; for RRIRHRPPRLPRPRPRPCHEPRP: -0.0201; for RRIRHRPPRLPRPRPRPWLPPRP: -0.0823.
The same measure for RRIRDRPPRLPRPRPRPPLAPRP: 0.448; for RRIRKRPPRLPRPRPRPHQSPRP: 0.226.
As for RRIRDRPPRLPRPRPRPRAEPRP, the “shrunken log2 fold change” value came to 0.552.
RRIRKRPPRLPRPRPRPRIIPRP: the “shrunken log2 fold change” value is 0.081.
The same measure for RRIRLRPPRLPRPRPRPLMHPRP: 0.0668; for RRIRCRPPRLPRPRPRPKVWPRP: 0.261.
With RRIRYRPPRLPRPRPRPYVPPRP, the “shrunken log2 fold change” value was -0.77.
The same measure for RRIRLRPPRLPRPRPRPFTPPRP: -0.265; for RRIRVRPPRLPRPRPRPPEDPRP: 0.425; for RRIRWRPPRLPRPRPRPPISPRP: 0.172.
On to RRIRPRPPRLPRPRPRPGSKPRP, for which the “shrunken log2 fold change” value is -0.0791.
The same measure for RRIRARPPRLPRPRPRPWCHPRP: -0.0135; for RRIRFRPPRLPRPRPRPRQCPRP: -0.123.
Turning to RRIRRRPPRLPRPRPRPKLAPRP, the “shrunken log2 fold change” value turned out to be 0.333.
The same measure for RRIRSRPPRLPRPRPRPTGNPRP: -0.275; for RRIRTRPPRLPRPRPRPSQFPRP: -0.302.
As for RRIRGRPPRLPRPRPRPPEEPRP, the “shrunken log2 fold change” value was 1.5.
Turning to RRIRWRPPRLPRPRPRPFRKPRP, the “shrunken log2 fold change” value was -0.351.
The same measure for RRIRPRPPRLPRPRPRPNMDPRP: -0.674.
The same measure for RRIRLRPPRLPRPRPRPRLWPRP: 0.399; for RRIRPRPPRLPRPRPRPFIMPRP: -0.426.
The same measure for RRIRIRPPRLPRPRPRPMTQPRP: 0.0472.
In the case of RRIRSRPPRLPRPRPRPNCGPRP, the “shrunken log2 fold change” value was -0.146.
The same measure for RRIRKRPPRLPRPRPRPGPVPRP: 0.531; for RRIRKRPPRLPRPRPRPGPKPRP: 1.15; for RRIRHRPPRLPRPRPRPWWAPRP: -0.162.
The same measure for RRIRKRPPRLPRPRPRPSRHPRP: 0.0967; for RRIRTRPPRLPRPRPRPHLGPRP: 0.0458; for RRIRLRPPRLPRPRPRPLCNPRP: -0.453.
The same measure for RRIRRRPPRLPRPRPRPMEDPRP: 0.0525; for RRIRKRPPRLPRPRPRPPQCPRP: 0.26; for RRIRTRPPRLPRPRPRPFWEPRP: 1.78.
With RRIRLRPPRLPRPRPRPSIMPRP, the “shrunken log2 fold change” value is -0.319.
The same measure for RRIRMRPPRLPRPRPRPSCHPRP: -0.0523.
In the case of RRIRVRPPRLPRPRPRPCVYPRP, the “shrunken log2 fold change” value was -0.136.
As to RRIRIRPPRLPRPRPRPRVVPRP, the “shrunken log2 fold change” value came to 0.00259.
For RRIRHRPPRLPRPRPRPGEVPRP, the “shrunken log2 fold change” value turned out to be 0.0396.
Consider RRIRRRPPRLPRPRPRPDQFPRP, for which the “shrunken log2 fold change” value is -0.0176.
The same measure for RRIRERPPRLPRPRPRPENPPRP: 0.142; for RRIRERPPRLPRPRPRPLKPPRP: -0.16.
The same measure for RRIRRRPPRLPRPRPRPYIVPRP: -0.263.
The same measure for RRIRCRPPRLPRPRPRPCFIPRP: -0.488; for RRIRYRPPRLPRPRPRPYAFPRP: -0.0129; for RRIRFRPPRLPRPRPRPCWGPRP: 0.00445.
Consider RRIRYRPPRLPRPRPRPTGTPRP, for which the “shrunken log2 fold change” value was -0.172.
The same measure for RRIRFRPPRLPRPRPRPGVPPRP: 0.0248.
The same measure for RRIRHRPPRLPRPRPRPDHDPRP: 0.0111; for RRIRDRPPRLPRPRPRPIANPRP: 0.274.
The same measure for RRIRERPPRLPRPRPRPQHTPRP: -0.32; for RRIRPRPPRLPRPRPRPCWDPRP: -0.0457.
RRIRMRPPRLPRPRPRPKRCPRP: the “shrunken log2 fold change” value was 0.211.
The same measure for RRIRPRPPRLPRPRPRPGYGPRP: 0.0799; for RRIRHRPPRLPRPRPRPICHPRP: -0.265.
For RRIRGRPPRLPRPRPRPEATPRP, the “shrunken log2 fold change” value stood at 2.21.
The same measure for RRIRGRPPRLPRPRPRPLWIPRP: 0.163.
Take RRIRHRPPRLPRPRPRPREWPRP: the “shrunken log2 fold change” value turned out to be 0.0987.
As to RRIRHRPPRLPRPRPRPHFFPRP, the “shrunken log2 fold change” value was -0.0737.
The same measure for RRIRVRPPRLPRPRPRPMLEPRP: 0.0706; for RRIRDRPPRLPRPRPRPHGYPRP: 0.0237.
As to RRIRRRPPRLPRPRPRPMGKPRP, the “shrunken log2 fold change” value was 0.35.
As for RRIRSRPPRLPRPRPRPTCEPRP, the “shrunken log2 fold change” value was 0.228.
The same measure for RRIRQRPPRLPRPRPRPSQSPRP: -0.00144.
